Measured values as given in the supplement of paper PMC5998384.

How the values were obtained:
HeLa Kyoto [1] = assay: melting temperature (median over replicates), in situ; higher = more thermally stable
HeLa Kyoto [2] = assay: solubility in G1/S (NP-40 vs SDS abundance) (log2 ratio); higher = more soluble; conditions: cell cycle stage: G1/S
HeLa Kyoto [3] = assay: thermal stability score vs G1/S (z-score of summed log2 fold changes over temperatures); higher = more thermally stable than in G1/S
HeLa Kyoto [4] = assay: solubility change mitosis vs G1/S (difference of NP-40 vs SDS log2 ratios) (log2 ratio difference); higher = more soluble in mitosis
[5] = cell cycle stage: early G1 (4.5 h after nocodazole release)
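Wherever melting temperature (median over replicates), in situ is given: HeLa Kyoto cells synchronized by double thymidine or nocodazole block, proteins quantified by TMT10plex mass spectrometry, three independent biological replicates.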
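Wherever solubility change mitosis vs G1/S (difference of NP-40 vs SDS log2 ratios) is given: synchronized HeLa Kyoto cells (double thymidine block for G1/S, nocodazole release for mitosis), protein amounts in NP-40 versus SDS lysates quantified by mass spectrometry, three biological replicates.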
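Wherever solubility in G1/S (NP-40 vs SDS abundance) is given: HeLa Kyoto cells arrested at G1/S by double thymidine block, proteins quantified by TMT10plex mass spectrometry in mild NP-40 versus SDS extracts, three biological replicates.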
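Wherever thermal stability score vs G1/S (z-score of summed log2 fold changes over temperatures) is given: synchronized HeLa Kyoto cells, proteins quantified by TMT10plex mass spectrometry, three biological replicates, mitosis taken 0.5 h after nocodazole release, G1/S directly after double thymidine block.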

Sequence	melting temperature (HeLa Kyoto [1]; cell cycle stage: G1/S) [°C]	melting temperature (HeLa Kyoto [1]; cell cycle stage: mitosis) [°C]	solubility in G1/S (log2) (HeLa Kyoto [2])	thermal stability score (HeLa Kyoto [3]; [5])	thermal stability score (HeLa Kyoto [3]; cell cycle stage: mitosis)	solubility change mitosis (log2) (HeLa Kyoto [4])
MAAAEGPVGDGELWQTWLPNHVVFLRLREGLKNQSPTEAEKPASSSLPSSPPPQLLTRNVVFGLGGELFLWDGEDSSFLVVRLRGPSGGGEEPALSQYQRLLCINPPLFEIYQVLLSPTQHHVALIGIKGLMVLELPKRWGKNSEFEGGKSTVNCSTTPVAERFFTSSTSLTLKHAAWYPSEILDPHVVLLTSDNVIRIYSLREPQTPTNVIILSEAEEESLVLNKGRAYTASLGETAVAFDFGPLAAVPKTLFGQNGKDEVVAYPLYILYENGETFLTYISLLHSPGNIGKLLGPLPMHPAAEDNYGYDACAVLCLPCVPNILVIATESGMLYHCVVLEGEEEDDHTSEKSWDSRIDLIPSLYVFECVELELALKLASGEDDPFDSDFSCPVKLHRDPKCPSRYHCTHEAGVHSVGLTWIHKLHKFLGSDEEDKDSLQELSTEQKCFVEHILCTKPLPCRQPAPIRGFWIVPDILGPTMICITSTYECLIWPLLSTVHPASPPLLCTREDVEVAESPLRVLAETPDSFEKHIRSILQRSVANPAFLKASEKDIAPPPEECLQLLSRATQVFREQYILKQDLAKEEIQRRVKLLCDQKKKQLEDLSYCREERKSLREMAERLADKYEEAKEKQEDIMNRMKKLLHSFHSELPVLSDSERDMKKELQLIPDQLRHLGNAIKQVTMKKDYQQQKMEKVLSLPKPTIILSAYQRKCIQSILKEEGEHIREMVKQINDIRNHVNF [NUP88]	50.4	48.8	-0.268	-1.46	-0.755	0.171
MAAAEPAVLALPNSGAGGAGAPSGTVPVLFCFSVFARPSSVPHGAGYELLIQKFLSLYGDQIDMHRKFVVQLFAEEWGQYVDLPKGFAVSERCKVRLVPLQIQLTTLGNLTPSSTVFFCCDMQERFRPAIKYFGDIISVGQRLLQGARILGIPVIVTEQYPKGLGSTVQEIDLTGVKLVLPKTKFSMVLPEVEAALAEIPGVRSVVLFGVETHVCIQQTALELVGRGVEVHIVADATSSRSMMDRMFALERLARTGIIVTTSEAVLLQLVADKDHPKFKEIQNLIKASAPESGLLSKV [ISOC1]	55.3	55.4	0.237	-1.52	-0.91	-0.11
MAAAGAPDGMEEPGMDTEAETVATEAPARPVNCLEAEAAAGAAAEDSGAARGSLQPAPAQPPGDPAAQASVSNGEDAGGGAGRELVDLKIIWNKTKHDVKFPLDSTGSELKQKIHSITGLPPAMQKVMYKGLVPEDKTLREIKVTSGAKIMVVGSTINDVLAVNTPKDAAQQDAKAEENKKEPLCRQKQHRKVLDKGKPEDVMPSVKGAQERLPTVPLSGMYNKSGGKVRLTFKLEQDQLWIGTKERTEKLPMGSIKNVVSEPIEGHEDYHMMAFQLGPTEASYYWVYWVPTQYVDAIKDTVLGKWQYF [UBFD1]	51.5	52.1	0.522	-0.222	-0.699	0.0325
MAAAGGARLLRAASAVLGGPAGRWLHHAGSRAGSSGLLRNRGPGGSAEASRSLSVSARARSSSEDKITVHFINRDGETLTTKGKVGDSLLDVVVENNLDIDGFGACEGTLACSTCHLIFEDHIYEKLDAITDEENDMLDLAYGLTDRSRLGCQICLTKSMDNMTVRVPETVADARQSIDVGKTS [FDX1]	53	53.9	0.338	-0.691	-1.73	-0.0683
MAAAGGGGGGAAAAGRAYSFKVVLLGEGCVGKTSLVLRYCENKFNDKHITTLQASFLTKKLNIGGKRVNLAIWDTAGQERFHALGPIYYRDSNGAILVYDITDEDSFQKVKNWVKELRKMLGNEICLCIVGNKIDLEKERHVSIQEAESYAESVGAKHYHTSAKQNKGIEELFLDLCKRMIETAQVDERAKGNGSSQPGTARRGVQIIDDEPQAQTSGGGCCSSG [RAB21]	60.4	60.5	0.158	-1.73	-1.92	-0.0826
